Data as given in patent publication US20070244048A1 (published 2007).
Where two headings read alike, the source gives them in different places. Non-standard residues stand in square brackets, D forms with d. *: point of attachment. Succinimide(1-Et,3-yl) = CCN1C(=O)CC(*)C1=O

Legend:
human NMUR1 [1] = target: T1, human NMUR1 (human, UniProt Q9HB89 1-426); assay: cell-based or functional assay
T1 sequence (looked up): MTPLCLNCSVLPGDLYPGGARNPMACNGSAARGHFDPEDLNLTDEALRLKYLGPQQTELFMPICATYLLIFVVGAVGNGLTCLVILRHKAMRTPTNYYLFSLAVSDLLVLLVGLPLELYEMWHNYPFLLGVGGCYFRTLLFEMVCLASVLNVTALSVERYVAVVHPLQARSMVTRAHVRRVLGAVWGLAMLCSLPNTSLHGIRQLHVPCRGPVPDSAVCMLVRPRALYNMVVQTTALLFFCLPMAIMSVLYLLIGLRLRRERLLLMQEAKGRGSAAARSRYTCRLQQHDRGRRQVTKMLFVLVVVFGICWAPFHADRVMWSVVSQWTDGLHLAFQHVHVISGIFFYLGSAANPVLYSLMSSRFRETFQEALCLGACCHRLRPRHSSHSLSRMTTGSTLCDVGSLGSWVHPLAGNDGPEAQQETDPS

human NMUR2 [2] = target: T2, human NMUR2 (human, UniProt Q9GZQ4 1-415); assay: cell-based or functional assay
T2 sequence (Q9GZQ4 whole entry): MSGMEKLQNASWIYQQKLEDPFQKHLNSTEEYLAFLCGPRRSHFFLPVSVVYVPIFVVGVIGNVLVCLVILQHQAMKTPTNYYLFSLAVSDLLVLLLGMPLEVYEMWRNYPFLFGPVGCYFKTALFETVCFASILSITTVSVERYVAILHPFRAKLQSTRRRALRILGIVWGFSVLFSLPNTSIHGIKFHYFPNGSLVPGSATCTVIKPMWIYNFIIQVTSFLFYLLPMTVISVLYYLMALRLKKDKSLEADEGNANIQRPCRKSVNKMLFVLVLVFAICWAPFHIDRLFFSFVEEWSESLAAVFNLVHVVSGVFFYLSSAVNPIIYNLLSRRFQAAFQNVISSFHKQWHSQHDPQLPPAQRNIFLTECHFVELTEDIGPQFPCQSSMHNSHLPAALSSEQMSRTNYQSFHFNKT

mouse NMUR1-ATG [3] = target: T3, mouse NMUR1-ATG (mouse, UniProt O55040 1-428); assay: cell-based or functional assay
T3 sequence (looked up): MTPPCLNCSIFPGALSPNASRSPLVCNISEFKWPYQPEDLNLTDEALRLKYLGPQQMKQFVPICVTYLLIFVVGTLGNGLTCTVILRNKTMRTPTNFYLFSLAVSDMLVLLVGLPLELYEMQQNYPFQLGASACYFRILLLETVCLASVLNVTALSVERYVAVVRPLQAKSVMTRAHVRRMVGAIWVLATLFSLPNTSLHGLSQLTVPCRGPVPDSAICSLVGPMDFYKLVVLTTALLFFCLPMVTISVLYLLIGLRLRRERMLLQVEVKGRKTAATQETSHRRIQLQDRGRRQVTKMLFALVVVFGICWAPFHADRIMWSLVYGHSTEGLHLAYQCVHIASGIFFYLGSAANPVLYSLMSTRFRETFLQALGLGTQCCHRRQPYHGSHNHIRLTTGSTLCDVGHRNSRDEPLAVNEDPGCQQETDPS

mouse NMUR1-CTG [4] = target: T4, mouse NMUR1-CTG (mouse, UniProt O55040 1-428); assay: cell-based or functional assay
T4 sequence (looked up): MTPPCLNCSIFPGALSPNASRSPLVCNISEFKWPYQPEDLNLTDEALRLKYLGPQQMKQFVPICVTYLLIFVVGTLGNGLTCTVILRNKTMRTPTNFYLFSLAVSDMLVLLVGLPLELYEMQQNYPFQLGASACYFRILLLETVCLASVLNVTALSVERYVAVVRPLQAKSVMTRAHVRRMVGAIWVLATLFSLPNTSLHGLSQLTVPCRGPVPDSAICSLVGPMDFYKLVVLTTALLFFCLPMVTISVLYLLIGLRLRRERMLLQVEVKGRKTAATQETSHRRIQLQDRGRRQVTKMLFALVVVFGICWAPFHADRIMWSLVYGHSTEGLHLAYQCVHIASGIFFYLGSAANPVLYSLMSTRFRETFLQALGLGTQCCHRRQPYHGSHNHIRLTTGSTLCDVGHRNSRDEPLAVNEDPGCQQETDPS

mouse NMUR2 [5] = target: T5, mouse NMUR2 (mouse, UniProt Q8BZ39 1-395); assay: cell-based or functional assay
T5 sequence (Q8BZ39 whole entry): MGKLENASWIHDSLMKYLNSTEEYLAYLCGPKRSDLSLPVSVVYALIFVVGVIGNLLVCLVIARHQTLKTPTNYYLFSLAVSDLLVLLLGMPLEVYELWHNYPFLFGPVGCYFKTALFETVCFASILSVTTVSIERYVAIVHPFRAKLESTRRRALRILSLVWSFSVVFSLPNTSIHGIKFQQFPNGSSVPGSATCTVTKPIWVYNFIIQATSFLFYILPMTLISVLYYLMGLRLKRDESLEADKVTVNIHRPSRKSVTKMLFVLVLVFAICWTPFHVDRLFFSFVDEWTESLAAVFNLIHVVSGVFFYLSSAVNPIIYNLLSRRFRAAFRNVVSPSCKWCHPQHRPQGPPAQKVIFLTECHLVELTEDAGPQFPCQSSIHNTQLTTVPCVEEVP

rat NMUR1-ATG [6] = target: T6, rat NMUR1-ATG (rat, UniProt Q9JJI5 1-425); assay: cell-based or functional assay
T6 sequence (looked up): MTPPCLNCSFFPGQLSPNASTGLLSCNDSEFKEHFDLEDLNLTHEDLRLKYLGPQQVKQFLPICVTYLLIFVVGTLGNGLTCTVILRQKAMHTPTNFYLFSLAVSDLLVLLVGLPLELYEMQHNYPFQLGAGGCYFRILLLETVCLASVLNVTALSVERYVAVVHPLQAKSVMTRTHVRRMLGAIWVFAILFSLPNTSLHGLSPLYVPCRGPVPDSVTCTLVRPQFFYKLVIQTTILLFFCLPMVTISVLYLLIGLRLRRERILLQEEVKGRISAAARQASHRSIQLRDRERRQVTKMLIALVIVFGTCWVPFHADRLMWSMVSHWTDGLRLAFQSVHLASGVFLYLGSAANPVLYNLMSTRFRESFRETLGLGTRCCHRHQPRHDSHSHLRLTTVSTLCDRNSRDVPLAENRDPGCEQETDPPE

rat NMUR1-TTG [7] = target: T7, rat NMUR1-TTG (rat, UniProt Q9JJI5 1-425); assay: cell-based or functional assay
T7 sequence (looked up): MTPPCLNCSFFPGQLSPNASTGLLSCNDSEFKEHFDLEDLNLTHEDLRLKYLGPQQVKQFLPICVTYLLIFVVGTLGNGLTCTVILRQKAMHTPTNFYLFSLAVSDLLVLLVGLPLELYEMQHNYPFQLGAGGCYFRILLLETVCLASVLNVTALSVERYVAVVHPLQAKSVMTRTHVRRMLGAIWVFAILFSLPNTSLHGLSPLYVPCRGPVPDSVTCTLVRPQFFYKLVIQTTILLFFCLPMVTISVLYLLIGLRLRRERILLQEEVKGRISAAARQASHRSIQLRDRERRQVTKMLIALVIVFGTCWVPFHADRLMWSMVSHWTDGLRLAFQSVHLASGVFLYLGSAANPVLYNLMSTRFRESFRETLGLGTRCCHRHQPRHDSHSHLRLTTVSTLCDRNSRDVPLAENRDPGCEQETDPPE

rat NMUR2 [8] = target: T8, rat NMUR2 (rat, UniProt Q9ESQ4 1-395); assay: cell-based or functional assay
T8 sequence (Q9ESQ4 whole entry): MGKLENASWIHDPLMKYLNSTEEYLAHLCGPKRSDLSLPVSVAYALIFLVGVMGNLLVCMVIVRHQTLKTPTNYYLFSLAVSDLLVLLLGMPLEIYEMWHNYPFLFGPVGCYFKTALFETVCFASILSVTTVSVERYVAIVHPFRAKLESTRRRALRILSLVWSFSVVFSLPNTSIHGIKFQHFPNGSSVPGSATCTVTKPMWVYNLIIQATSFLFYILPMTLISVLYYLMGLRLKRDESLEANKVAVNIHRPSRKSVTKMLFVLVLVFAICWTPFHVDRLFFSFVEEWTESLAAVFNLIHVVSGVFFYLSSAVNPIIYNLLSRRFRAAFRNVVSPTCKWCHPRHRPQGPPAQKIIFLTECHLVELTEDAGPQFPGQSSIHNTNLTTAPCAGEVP

human NMUR1 [9] = target: T1, human NMUR1; assay: cell-based or functional assay; remark: listed apart in the source
human NMUR2 [10] = target: T2, human NMUR2; assay: cell-based or functional assay; remark: listed apart in the source
mouse NMUR1-ATG [11] = target: T3, mouse NMUR1-ATG; assay: cell-based or functional assay; remark: listed apart in the source
mouse NMUR1-CTG [12] = target: T4, mouse NMUR1-CTG; assay: cell-based or functional assay; remark: listed apart in the source
mouse NMUR2 [13] = target: T5, mouse NMUR2; assay: cell-based or functional assay; remark: listed apart in the source
rat NMUR1-ATG [14] = target: T6, rat NMUR1-ATG; assay: cell-based or functional assay; remark: listed apart in the source
rat NMUR1-TTG [15] = target: T7, rat NMUR1-TTG; assay: cell-based or functional assay; remark: listed apart in the source
rat NMUR2 [16] = target: T8, rat NMUR2; assay: cell-based or functional assay; remark: listed apart in the source
human NMUR1 [17] = target: T1, human NMUR1; assay: 125I-hNMU-25 displacement, cell membranes
human NMUR2 [18] = target: T2, human NMUR2; assay: 125I-hNMU-25 displacement, cell membranes
mouse NMUR1-ATG [19] = target: T3, mouse NMUR1-ATG; assay: 125I-hNMU-25 displacement, cell membranes
mouse NMUR1-CTG [20] = target: T4, mouse NMUR1-CTG; assay: 125I-hNMU-25 displacement, cell membranes
mouse NMUR2 [21] = target: T5, mouse NMUR2; assay: 125I-hNMU-25 displacement, cell membranes
rat NMUR1-ATG [22] = target: T6, rat NMUR1-ATG; assay: 125I-hNMU-25 displacement, cell membranes
rat NMUR1-TTG [23] = target: T7, rat NMUR1-TTG; assay: 125I-hNMU-25 displacement, cell membranes
rat NMUR2 [24] = target: T8, rat NMUR2; assay: 125I-hNMU-25 displacement, cell membranes
human NMUR1 [25] = target: T1, human NMUR1; assay: cell-based or functional assay; remark: listed apart in the source
human NMUR2 [26] = target: T2, human NMUR2; assay: cell-based or functional assay; remark: listed apart in the source
human NMUR1 [27] = target: T1, human NMUR1; assay: 125I-hNMU-25 displacement, HEK cell membranes
Method: (§1) Confluent cell monolayers expressing NMU receptors (the HEK cells described above) were harvested with phosphate buffered saline, collected by centrifugation, and resuspended in membrane buffer (50 mM TrisCl pH 7.4, 5 mM MgCl₂, 1× Protease Inhibitor Cocktail, 10 μM phosphoramidon). After the cell pellet was homogenized, the solution was centrifuged at 18,000 rpm for 20 minutes at 4° C. The pellet was resuspended in membrane buffer to yield a final concentration of 0.5-5 μg/μL of membrane and stored at −80° C.
(§2) Experiments were performed in assay buffer (25 mM TrisCl, pH 7.4, 10 mM MgCl₂, 2mM EDTA, 1× Protease Inhibitor Cocktail, 100 μg/mL Bacitricin, 10 μM phosphoramidon) in 200 μL volumes in a 96-well format using 2-5 μg of membrane and […] ¹²⁵I-hNMU-25 (about 12,000 cpm/well). For non-specific binding, 1 μM hNMU-25 was added. About 5 μL of peptides were added to measure antagonist activity, and the entire reaction was incubated at room temperature with shaking for 80 minutes. The reaction was terminated by rapid filtration through 0.3% poly-ethylenimine presoaked Millipore 96-well filter plates and washed with ice-cold buffer (5 mM TrisCl pH 7.4, 10 mM MgCl₂, 2.5 mM EDTA, 0.04% Triton X-100). Plates were air-dried overnight at room temperature and recovered radioactivity was determined by standard scintillation counting. IC₅₀ values were determined using GraphPad Prism software.
(§3) Concentration-response curves and radioligand-binding data were fitted using Prism (GraphPad Software). Results are summarized below in Tables 8 and 9.

human NMUR2 [28] = target: T2, human NMUR2; assay: 125I-hNMU-25 displacement, HEK cell membranes
Method: as §1, §2, §3

B1: NMU13 (peptide)
peptide: Ac-C(Succinimide(1-Et,3-yl))FRVDEEFQSPFASQSRGYF[dA]WRPRN-NH2
SMILES: CCN1C(=O)CC(SC[C@H](NC(C)=O)C(=O)N[C@@H](Cc2ccccc2)C(=O)N[C@@H](CCCNC(=N)N)C(=O)N[C@H](C(=O)N[C@@H](CC(=O)O)C(=O)N[C@@H](CCC(=O)O)C(=O)N[C@@H](CCC(=O)O)C(=O)N[C@@H](Cc2ccccc2)C(=O)N[C@@H](CCC(N)=O)C(=O)N[C@@H](CO)C(=O)N2CCC[C@H]2C(=O)N[C@@H](Cc2ccccc2)C(=O)N[C@@H](C)C(=O)N[C@@H](CO)C(=O)N[C@@H](CCC(N)=O)C(=O)N[C@@H](CO)C(=O)N[C@@H](CCCNC(=N)N)C(=O)NCC(=O)N[C@@H](Cc2ccc(O)cc2)C(=O)N[C@@H](Cc2ccccc2)C(=O)N[C@H](C)C(=O)N[C@@H](Cc2c[nH]c3ccccc23)C(=O)N[C@@H](CCCNC(=N)N)C(=O)N2CCC[C@H]2C(=O)N[C@@H](CCCNC(=N)N)C(=O)N[C@@H](CC(N)=O)C(N)=O)C(C)C)C1=O
notes: also called NMUR1 selective peptide NMU13
Human NMUR1 [1]
  % Activity (FLIPR): 100%
  EC50 (FLIPR): 4.8 nM
Human NMUR2 [2]
  % Activity (FLIPR): 0%
  EC50 (FLIPR): > 1000 nM
Mouse NMUR1-ATG [3]
  % Activity (FLIPR): 98.6%
  EC50 (FLIPR): 35.8 nM
Mouse NMUR1-CTG [4]
  % Activity (FLIPR): 73.6%
  EC50 (FLIPR): 142 nM
Mouse NMUR2 [5]
  % Activity (FLIPR): 0%
  EC50 (FLIPR): > 1000 nM
Rat NMUR1-ATG [6]
  % Activity (FLIPR): 100%
  EC50 (FLIPR): 9.5 nM
Rat NMUR1-TTG [7]
  % Activity (FLIPR): 94.6%
  EC50 (FLIPR): 115 nM
Rat NMUR2 [8]
  % Activity (FLIPR): 0%
  EC50 (FLIPR): > 1000 nM
Human NMUR1 [9]
  % activity: 91%
  IC50 (nM), functional: 1.7 nM
Human NMUR2 [10]
  % activity: 0%
  IC50 (nM), functional: > 1000 nM
Mouse NMUR1-ATG [11]
  % activity: 96%
  IC50 (nM), functional: 7.8 nM
Mouse NMUR1-CTG [12]
  % activity: 88%
  IC50 (nM), functional: 14 nM
Mouse NMUR2 [13]
  % activity: 27%
  IC50 (nM), functional: > 1000 nM
Rat NMUR1-ATG [14]
  % activity: 92%
  IC50 (nM), functional: 15.8 nM
Rat NMUR1-TTG [15]
  % activity: 94%
  IC50 (nM), functional: 107 nM
Rat NMUR2 [16]
  % activity: 24%
  IC50 (nM), functional: > 1000 nM
Human NMUR1 [17]
  % inhibition of NMU-25 binding: 100%
  IC50: 4.3 nM
Human NMUR2 [18]
  % inhibition of NMU-25 binding: 48%
Mouse NMUR1-ATG [19]
  % inhibition of NMU-25 binding: 100%
  IC50: 5.4 nM
Mouse NMUR1-CTG [20]
  % inhibition of NMU-25 binding: 100%
  IC50: 3.5 nM
Mouse NMUR2 [21]
  % inhibition of NMU-25 binding: 30%
Rat NMUR1-ATG [22]
  % inhibition of NMU-25 binding: 100%
  IC50: 1.6 nM
Rat NMUR1-TTG [23]
  % inhibition of NMU-25 binding: 100%
  IC50: 3.24 nM
Rat NMUR2 [24]
  % inhibition of NMU-25 binding: 0%

B2: neuromedin U receptor agonist E (peptide)
peptide: Ac-F[dL]WRPRN-NH2
SMILES: CC(=O)N[C@@H](Cc1ccccc1)C(=O)N[C@H](CC(C)C)C(=O)N[C@@H](Cc1c[nH]c2ccccc12)C(=O)N[C@@H](CCCNC(=N)N)C(=O)N1CCC[C@H]1C(=O)N[C@@H](CCCNC(=N)N)C(=O)N[C@@H](CC(N)=O)C(N)=O
Human NMUR1 [25]
  % activity: 100%
  IC50 (nM), functional: 1.9 nM
Human NMUR2 [26]
  % activity: 1.8%
  IC50 (nM), functional: > 1000 nM
Human NMUR1 [27]
  % activity (binding): 93%
  IC50: 75 nM
Human NMUR2 [28]
  % activity (binding): 5%
